Experimental data from patent US20210221917A1.
pEC50: −log10 of the molar value.

Key:
FcyRIIb [1] = biological target: FcyRIIb (UniProt P31994); experiment: cell-based competitive TR-FRET assay (CisBio Bioassays); reference: Construct 5 (SIF3)
FcyRIIIa = FcyRIIIa (UniProt P08637); experiment: cell-based competitive TR-FRET
FcyRIIa = FcyRIIa (UniProt P12318); experiment: cell-based competitive TR-FRET
FcyRIIb [2] = biological target: FcyRIIb (UniProt P31994); experiment: cell-based competitive TR-FRET
FcγRIIIa = FcγRIIIa (UniProt P08637); experiment: cell-based competitive TR-FRET
FcγRIIa = FcγRIIa (UniProt P12318); experiment: cell-based competitive TR-FRET
FcγRIIb = FcγRIIb (UniProt P31994); experiment: cell-based competitive TR-FRET

Row | fold increase in binding compared to Construct 5 (SIF3) (FcyRIIb [1]) | pEC50 (FcyRIIIa) | pEC50 (FcyRIIa) | pEC50 (FcyRIIb [2]) | pEC50 (FcγRIIIa) | pEC50 (FcγRIIa) | pEC50 (FcγRIIb) | Substance
1 | > 300 fold | 7.57 | 9.90 | 10.78 |  |  |  | Construct 5-FcyRIIb+ mutant (Construct 5 backbone with S267E/L328F) (from UniProt P01857 27-328; P0DOX5 223-449)
2 |  |  |  |  | 7.02 | 6.30 | 5.77 | IgG1
